Experimental data from US20050059089A1 (priority 2003, published 2005).
“Also recorded” adds a separate entry of the source. Read-outs that look alike come from different tables or passages of the source.

How the values were obtained:
GPCR135 [1] = target: T1, GPCR135 (Homo sapiens, UniProt Q9NSD7); experiment: Inhibition of forskolin-stimulated cAMP (CRE-β-galactosidase) in SK-N-MC cells; format: cell-based; parameters: expressed in transfected cells; details: SK-N-MC cells stably expressing GPCR135
T1 sequence (Q9NSD7 1-469): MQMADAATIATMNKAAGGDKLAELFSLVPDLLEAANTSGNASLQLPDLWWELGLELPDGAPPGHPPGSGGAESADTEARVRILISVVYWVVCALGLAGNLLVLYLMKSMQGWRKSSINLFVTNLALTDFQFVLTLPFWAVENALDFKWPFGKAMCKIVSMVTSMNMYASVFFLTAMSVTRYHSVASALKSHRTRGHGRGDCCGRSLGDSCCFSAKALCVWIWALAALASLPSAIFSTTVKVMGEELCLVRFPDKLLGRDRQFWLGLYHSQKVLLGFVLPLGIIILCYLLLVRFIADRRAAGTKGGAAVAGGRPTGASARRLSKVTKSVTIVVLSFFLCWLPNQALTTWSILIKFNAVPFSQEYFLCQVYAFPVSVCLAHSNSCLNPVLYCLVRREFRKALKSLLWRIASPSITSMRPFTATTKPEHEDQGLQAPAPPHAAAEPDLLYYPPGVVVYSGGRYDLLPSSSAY
Experimental: SK-N-MC cells stably expressing GPCR142 were established by transfection of GPCR142 expressing plasmids into SK-N-MC cells harboring a β-galactosidase gene under control of multiple cAMP responsive elements. The stable transfectants were selected by culturing the transfected cells under G418 selection (400 mg/L). The receptor expressing cells were seeded in 96-well plates at a cell density of 30,000 cells/well. After 24 h, cells were stimulated with forskolin or different peptides. Cells were cultured for an additional 6 h and the intracellular β-gal activity, which represents the intracellular cAMP accumulation, was measured as described by Liu et al. (2000), Mol. Pharmacol., 59, 420-426.
The same experiment was performed using GPCR135.

[2] = tested on: HEK293 cells transfected by Gα16 alone; experiment: Ca2+ mobilization assay, HEK293 cells transfected by Gα16 alone; format: cell-based, human; details: cells expressing Gα16 alone (no receptor)
Experimental: (§1) Human embryonic kidney (HEK) 293 cells were transfected with GPCR135,.GPCR142 or co-transfected with Gqi5 (Conklin et al. (1993), Nature 363, 274-280) or Gα16 (Amatruda et al. (1991), Proc. Natl. Acad. Sci. U.S.A. 88, 5587-5591) expressing plasmids using LipofectAmine. Two days after transfection, cells were detached with PBS plus 10 mM EDTA. The detached cells were washed with DMEM-F12 medium (without phenol red, Invitrogen) and seeded in black poly-D lysine coated 96-well plates (BD Biosciences, San Jose, Calif.) at a cell density of 50,000 cell/well.

GPCR135 [3] = target: T1, GPCR135; experiment: GTPγS binding assay, GPCR135 expression membranes; format: biochemical; parameters: expressed in transfected cells; host or cells: CHO membranes (GTPγS); HEK293 with Gα16 or Gqi5 (Ca2+)
Experimental: The GPCR142 expression vector described above was transfected into CHO cells using Lipofectamine (Invitrogen) according to the manufacturer's instructions. Two days after transfection, the cells were harvested and the cell membranes were prepared by homogenizing the cells in cold 50 mM Tris-HCl, 5 mM EDTA, pH 7.5 followed by centrifugation at 4° C. 1000 g for 10 min. The supernatant was centrifuged at 4° C. 20,000 g for 30 min and the pellet was re-suspended in GTPγS binding buffer: 50 mM Tris-HCl, pH 7.4, 10 mM MgCl2, 1 mM EDTA, pH 8.0, and 100 mM NaCl using a polytron tissue homogenizer. Protease inhibitors were added to the buffer at concentrations of 1 mM PMSF, 10 μg/ml of pepstatin A, 10 μg/ml of leupeptin. Cell membranes and different concentrations of ligands were added to 96-well plates and incubated at room temperature for 20 min. ^35S-GTPγS (NEN) was then added to each well at a final concentration of […] in a final volume of 200 μL. The reactions were allowed to proceed at room temperature for 1 h, and then the mixtures were filtered though a 96-well GFC filter plate (Packard) and washed with cold washing buffer: 50 mM Tris-HCl, pH 7.4, 10 mM MgCl2. Fifty microliters of Microscint-40 (Packard) was added to each well and the plate was counted on a top counter (TopCount NTX, Packard).
The same assay was performed as described above, except using GPCR135 in place of GPCR142.

GPCR142 [4] = target: T2, GPCR142 (Homo sapiens, UniProt Q8TDU9, L329S); experiment: Ca2+ mobilization assay, 293 cells co-expressing GPCR142 and Gqi5; format: cell-based; parameters: The complete coding region of human GPCR142 was PCR-amplified from human genomic DNA; expressed in transfected cells; HEK293 co-transfected with Gqi5 (Ca2+)
T2 sequence (Q8TDU9 whole entry L329S): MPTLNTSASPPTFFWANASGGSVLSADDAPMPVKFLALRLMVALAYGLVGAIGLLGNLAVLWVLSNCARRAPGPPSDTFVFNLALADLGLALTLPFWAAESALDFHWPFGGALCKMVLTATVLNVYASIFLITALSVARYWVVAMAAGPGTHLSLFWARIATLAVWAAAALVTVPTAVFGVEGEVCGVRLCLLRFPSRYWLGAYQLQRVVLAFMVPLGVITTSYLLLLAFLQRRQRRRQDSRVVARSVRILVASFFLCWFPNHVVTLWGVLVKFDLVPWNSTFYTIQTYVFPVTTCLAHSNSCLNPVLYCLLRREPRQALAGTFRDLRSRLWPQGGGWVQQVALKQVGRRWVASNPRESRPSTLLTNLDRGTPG
Experimental: as §1

GPCR142 [5] = target: T2, GPCR142; experiment: Ca2+ mobilization assay (FLIPR), HEK293 cells co-expressing GPCR142 and Gα16; format: cell-based; parameters: The complete coding region of human GPCR142 was PCR-amplified from human genomic DNA; expressed in transfected cells; HEK293 co-transfected with Gα16 (Ca2+)
Experimental: as §1

GPCR135 [6] = target: T1, GPCR135; experiment: Ca2+ mobilization assay, 293 cells co-expressing GPCR135 and Gqi5; format: cell-based
Experimental: as §1

GPCR135 [7] = target: T1, GPCR135; experiment: Ca2+ mobilization assay, HEK293 cells co-expressing GPCR135 and Gα16; format: cell-based; parameters: expressed in transfected cells; host or cells: HEK293 with Gα16 or Gqi5 (Ca2+)

## relaxin3: Human relaxin3 (SEQ ID NO: 6), produced recombinantly; mature peptide of A- and B-chain linked by disulfide bridges
GPCR135 [1]
  inhibition of forskolin induced β-galactosidase expression: dose-dependently inhibits
[2]
  stimulation of Ca2+ mobilization: did not respond
GPCR135 [3]
  stimulation of GTPγS binding: stimulated GTPγS binding
GPCR142 [4]
  stimulation of Ca2+ signaling: No relaxin3-stimulated Ca^2+ signaling was observed
GPCR142 [4]; listed as Relaxin3
  stimulation of Ca2+ signaling: does not stimulate any detectable Ca^2+ signal
GPCR142 [5]
  stimulation of Ca2+ mobilization: stimulated Ca2+ mobilization; also recorded: stimulated a strong Ca^2+ signal; also recorded: stimulates Ca^2+ signaling
GPCR135 [6]
  stimulation of Ca2+ mobilization: stimulates Ca^2+ mobilization
GPCR135 [7]
  stimulation of Ca2+ mobilization: stimulated Ca2+ mobilization
GPCR135 [7]; listed as Relaxin3
  stimulation of Ca2+ mobilization: stimulated Ca^2+ mobilization
